From doi:10.1101/570390

Target: mature KLK4 from recombinant pro-KLK4 expressed in Sf9 cells, activated with thermolysin (human) (UniProt Q9Y5K2)
Experiment: enzyme inhibition assay

Chain of UniProt Q9Y5K2 (Q9Y5K2 31-254): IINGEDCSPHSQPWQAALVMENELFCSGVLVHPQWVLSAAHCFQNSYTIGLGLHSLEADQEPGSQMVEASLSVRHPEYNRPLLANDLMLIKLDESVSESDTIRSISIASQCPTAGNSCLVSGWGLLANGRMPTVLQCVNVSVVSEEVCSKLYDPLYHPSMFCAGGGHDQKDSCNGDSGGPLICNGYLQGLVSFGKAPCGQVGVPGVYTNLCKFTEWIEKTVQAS

Ki [nM]	Substance
3.48	SFTI-FCQR(Asn14)[1,14], monocyclic (1,14-acyclic backbone, disulfide-bridged) (peptide)
0.04	SFTI-FCQR(Asn14), bicyclic (peptide)
